Measurements published in patent US20090035321A1, “Intercellular adhesion molecules and their binding ligands” (Boehringer Ingelheim Pharmaceuticals, Inc., published 2009).

Legend:
[1] = molecular target: ICAM-1 A115N/SV (printed A155N/SV at paragraph 410) (human) (UniProt P05362); assay: COS cells on LFA-1 coated plastic
ICAM-1 S5/T (human) = ICAM-1 S5/T (human) (UniProt P05362); assay: COS cells on LFA-1 coated plastic
ICAM-1 Q1T/KA = ICAM-1 Q1T/KA (human, UniProt P05362); assay: COS cells on LFA-1 coated plastic
ICAM-1 S3/T = ICAM-1 S3/T (human, UniProt P05362); assay: COS cells on LFA-1 coated plastic
ICAM-1 V4/G = ICAM-1 V4/G (human, UniProt P05362); assay: COS cells on LFA-1 coated plastic
ICAM-1 R13G/EA = ICAM-1 R13G/EA (human, UniProt P05362); assay: COS cells on LFA-1 coated plastic
ICAM-1 R13/E = ICAM-1 R13/E (human, UniProt P05362); assay: COS cells on LFA-1 coated plastic
ICAM-1 R13/Q = ICAM-1 R13/Q (human, UniProt P05362); assay: COS cells on LFA-1 coated plastic
ICAM-1 G15/SA = ICAM-1 G15/SA (human, UniProt P05362); assay: COS cells on LFA-1 coated plastic
ICAM-1 S24/A = ICAM-1 S24/A (human, UniProt P05362); assay: COS cells on LFA-1 coated plastic
ICAM-1 D26QPK/ALPE = ICAM-1 D26QPK/ALPE (human, UniProt P05362); assay: COS cells on LFA-1 coated plastic
ICAM-1 Q27/L = ICAM-1 Q27/L (human, UniProt P05362); assay: COS cells on LFA-1 coated plastic
ICAM-1 E34/A = ICAM-1 E34/A (human, UniProt P05362); assay: COS cells on LFA-1 coated plastic
ICAM-1 G46NN/ASI = ICAM-1 G46NN/ASI (human, UniProt P05362); assay: COS cells on LFA-1 coated plastic
ICAM-1 N48/H = ICAM-1 N48/H (human, UniProt P05362); assay: COS cells on LFA-1 coated plastic
ICAM-1 R49KV/EKL = ICAM-1 R49KV/EKL (human, UniProt P05362); assay: COS cells on LFA-1 coated plastic
ICAM-1 K50V/EL = ICAM-1 K50V/EL (human, UniProt P05362); assay: COS cells on LFA-1 coated plastic
ICAM-1 Y52/F = ICAM-1 Y52/F (human, UniProt P05362); assay: COS cells on LFA-1 coated plastic
ICAM-1 Q58EDS/AKDI = ICAM-1 Q58EDS/AKDI (human, UniProt P05362); assay: COS cells on LFA-1 coated plastic
ICAM-1 Q58/H = ICAM-1 Q58/H (human, UniProt P05362); assay: COS cells on LFA-1 coated plastic
ICAM-1 E59/K = ICAM-1 E59/K (human, UniProt P05362); assay: COS cells on LFA-1 coated plastic
ICAM-1 D60/Q = ICAM-1 D60/Q (human, UniProt P05362); assay: COS cells on LFA-1 coated plastic
ICAM-1 S61/I = ICAM-1 S61/I (human, UniProt P05362); assay: COS cells on LFA-1 coated plastic
ICAM-1 M64/I = ICAM-1 M64/I (human, UniProt P05362); assay: COS cells on LFA-1 coated plastic
ICAM-1 Y66/T = ICAM-1 Y66/T (human, UniProt P05362); assay: COS cells on LFA-1 coated plastic
ICAM-1 N68/K = ICAM-1 N68/K (human, UniProt P05362); assay: COS cells on LFA-1 coated plastic
ICAM-1 D71/E = ICAM-1 D71/E (human, UniProt P05362); assay: COS cells on LFA-1 coated plastic
ICAM-1 D71/N = ICAM-1 D71/N (human, UniProt P05362); assay: COS cells on LFA-1 coated plastic
ICAM-1 S74/A = ICAM-1 S74/A (human, UniProt P05362); assay: COS cells on LFA-1 coated plastic
ICAM-1 T75/A = ICAM-1 T75/A (human, UniProt P05362); assay: COS cells on LFA-1 coated plastic
ICAM-1 K77T/ES = ICAM-1 K77T/ES (human, UniProt P05362); assay: COS cells on LFA-1 coated plastic
ICAM-1 E87/K = ICAM-1 E87/K (human, UniProt P05362); assay: COS cells on LFA-1 coated plastic
ICAM-1 E90/Q = ICAM-1 E90/Q (human, UniProt P05362); assay: COS cells on LFA-1 coated plastic
ICAM-1 L91/A = ICAM-1 L91/A (human, UniProt P05362); assay: COS cells on LFA-1 coated plastic
ICAM-1 N103/K = ICAM-1 N103/K (human, UniProt P05362); assay: COS cells on LFA-1 coated plastic
ICAM-1 N118/Q = ICAM-1 N118/Q (human, UniProt P05362); assay: COS cells on LFA-1 coated plastic
ICAM-1 E127/R = ICAM-1 E127/R (human, UniProt P05362); assay: COS cells on LFA-1 coated plastic
ICAM-1 R149RD/EEG = ICAM-1 R149RD/EEG (human, UniProt P05362); assay: COS cells on LFA-1 coated plastic
ICAM-1 N156/E = ICAM-1 N156/E (human, UniProt P05362); assay: COS cells on LFA-1 coated plastic
ICAM-1 R166PQ/EPA = ICAM-1 R166PQ/EPA (human, UniProt P05362); assay: COS cells on LFA-1 coated plastic
ICAM-1 S177/G = ICAM-1 S177/G (human, UniProt P05362); assay: COS cells on LFA-1 coated plastic
ICAM-1 A178/G = ICAM-1 A178/G (human, UniProt P05362); assay: COS cells on LFA-1 coated plastic
ICAM-1 A189T/SI = ICAM-1 A189T/SI (human, UniProt P05362); assay: COS cells on LFA-1 coated plastic
ICAM-1 D213GL/HGV = ICAM-1 D213GL/HGV (human, UniProt P05362); assay: COS cells on LFA-1 coated plastic
ICAM-1 Y476/TAG (human) = ICAM-1 Y476/TAG (human) (UniProt P05362); assay: COS cell adhesion to purified LFA-1, no antibody

LFA-1 Binding % (% of wild type) [1]: 0
LFA-1 Binding % (% of wild type) (ICAM-1 S5/T (human)): 104
LFA-1 Binding % (% of wild type) (ICAM-1 Q1T/KA): 119
LFA-1 Binding % (% of wild type) (ICAM-1 S3/T): 149
LFA-1 Binding % (% of wild type) (ICAM-1 V4/G): 64
LFA-1 Binding % (% of wild type) (ICAM-1 R13G/EA): 2
LFA-1 Binding % (% of wild type) (ICAM-1 R13/E): 1
LFA-1 Binding % (% of wild type) (ICAM-1 R13/Q): 78
LFA-1 Binding % (% of wild type) (ICAM-1 G15/SA): 120
LFA-1 Binding % (% of wild type) (ICAM-1 S24/A): 80
LFA-1 Binding % (% of wild type) (ICAM-1 D26QPK/ALPE): 30
LFA-1 Binding % (% of wild type) (ICAM-1 Q27/L): 37
LFA-1 Binding % (% of wild type) (ICAM-1 E34/A): 0
LFA-1 Binding % (% of wild type) (ICAM-1 G46NN/ASI): 49
LFA-1 Binding % (% of wild type) (ICAM-1 N48/H): 88
LFA-1 Binding % (% of wild type) (ICAM-1 R49KV/EKL): 123
LFA-1 Binding % (% of wild type) (ICAM-1 K50V/EL): 29
LFA-1 Binding % (% of wild type) (ICAM-1 Y52/F): 72
LFA-1 Binding % (% of wild type) (ICAM-1 Q58EDS/AKDI): 3
LFA-1 Binding % (% of wild type) (ICAM-1 Q58/H): 109
LFA-1 Binding % (% of wild type) (ICAM-1 E59/K): 134
LFA-1 Binding % (% of wild type) (ICAM-1 D60/Q): 18
LFA-1 Binding % (% of wild type) (ICAM-1 S61/I): 59
LFA-1 Binding % (% of wild type) (ICAM-1 M64/I): 111
LFA-1 Binding % (% of wild type) (ICAM-1 Y66/T): 135
LFA-1 Binding % (% of wild type) (ICAM-1 N68/K): 101
LFA-1 Binding % (% of wild type) (ICAM-1 D71/E): 118
LFA-1 Binding % (% of wild type) (ICAM-1 D71/N): 79
LFA-1 Binding % (% of wild type) (ICAM-1 S74/A): 70
LFA-1 Binding % (% of wild type) (ICAM-1 T75/A): 59
LFA-1 Binding % (% of wild type) (ICAM-1 K77T/ES): 87
LFA-1 Binding % (% of wild type) (ICAM-1 E87/K): 65
LFA-1 Binding % (% of wild type) (ICAM-1 E90/Q): 122
LFA-1 Binding % (% of wild type) (ICAM-1 L91/A): 87
LFA-1 Binding % (% of wild type) (ICAM-1 N103/K): 12
LFA-1 Binding % (% of wild type) (ICAM-1 N118/Q): 54
LFA-1 Binding % (% of wild type) (ICAM-1 E127/R): 82
LFA-1 Binding % (% of wild type) (ICAM-1 R149RD/EEG): 81
LFA-1 Binding % (% of wild type) (ICAM-1 N156/E): 60
LFA-1 Binding % (% of wild type) (ICAM-1 R166PQ/EPA): 75
LFA-1 Binding % (% of wild type) (ICAM-1 S177/G): 59
LFA-1 Binding % (% of wild type) (ICAM-1 A178/G): 59
LFA-1 Binding % (% of wild type) (ICAM-1 A189T/SI): 91
LFA-1 Binding % (% of wild type) (ICAM-1 D213GL/HGV): 90
% of Cells Expressing ICAM-1 that Bind LFA-1 (ICAM-1 Y476/TAG (human)): 20%
Substance: purified LFA-1, bound to plastic (from UniProt P20701) (receptor)
